A word on the Kd: it is the concentration at which binding is half-saturated. Lower therefore signals tighter binding. Broadly, the koff is the rate constant with which the complex falls apart. A lower koff goes with slow dissociation. For orientation: kon means the rate constant with which the complex forms. Higher therefore signals fast association.

Data on 23 molecules can be found in patent US20080095772A1 (Chugai, published 2008).

In test [1] the target is T1, human PTHrP (1-34) (human).
T1 construct: Synthetic peptide (Peninsula; Peptide Research Institute), coated on ELISA plates at 1 µg/ml or used in solid phase RIA; also called human parathyroid hormone related protein (1-34)
Put plainly: ELISA on plate-coated human PTHrP (1-34) (1 µg/ml); bound antibody detected with alkaline phosphatase-conjugated goat anti-human IgG; O.D. 405/620.
Protocol: (§1) An ELISA plate for determining antigen binding ability was prepared as follows. Each of the wells of a 96-well plate for ELISA (Maxisorp, NUNC) was coated with 100 μl of a coating buffer supplemented with 1 μg/ml of human PTHrP (1-34) and then blocked with 200 μl of a dilution buffer. Thereafter, into each of the wells, was added a culture supernatant of the COS-7 cells in which the hybrid antibody or humanized antibody was expressed or a solution of the purified hybrid antibody or the purified humanized antibody in stepwise dilution. After incubating at room temperature and washing with PBS-Tween20, 100 μl of alkaline phosphatase-conjugated goat anti-human IgG antibody (TAGO) was added to each of the wells. […] The solution was measured for absorbance at 405 nm using Microplate Reader (Bio Rad).

Test [2] concerns the target T2, PTHrP (1-34+Cys) (human, C-terminal Cys coupled to sensor tip CM5 through PDEA (thiol coupling)). Put plainly: BIACORE (SPR), PTHrP (1-34+C) immobilised on CM5 through the C-terminal Cys, antibody as analyte. On the technique in general: SPR reads the build-up and loss of mass on a sensor chip optically.
Protocol: (§2) In this experiment, kinetic analysis of the antigen-antibody interaction using BIACORE was conducted. PTHrP(1-34+Cys) was used as an antigen and adsorbed onto the sensor tip specifically for C-terminals. Purified antibodies of various concentrations were used as an analyte. From the sensorgram obtained, kinetics parameters (binding rate constant “kass” and dissociation rate constant “kdiss”) were calculated.
(§3) As a running buffer, HBS (10 mM HEPES, pH 7.4; 0.15 M NaCl; 3.4 mM EDTA; 0.005% Surfactant P20) at a flow rate of 5 μl/min. was employed. The carboxyl groups of carboxymethyldextran on the sensor tip CM5 were activated by an injection of 100 μl of 0.05M N-hydroxysuccinimide (NHS)/0.2M N-ethyl-N′-(3-dimethylaminopropyl)carbodiimide hydrochloride (EDC) and an injection of 100 μl of 80 mM 2-(2-pyridinyldithio)ethanamine (PDEA)/0.1M borate buffer (pH 8.5), and an additional injection of 10 μl of 5 μg/ml PTHrP (1-34+C)/10 mM sodium acetate buffer (pH 5.0) to adsorbe onto the C-terminals of PTHrP (1-34+C) specifically for Cys residues. Subsequently, an injection of 100 μl of 50 mM (L)-cystein/1M NaCl/0.1M sodium formate buffer (pH 4.3) was conducted to block excessively activated groups. Subsequently, an injection of 10 μl of 0.1M glycine-HCl buffer (pH 2.5) and 10 μl of 10 mM HCl was conducted to wash the substances having non-covalent bonding.
(§4) The date file of interest was read and a comparison of the reaction patterns was conducted by overlaying the reaction regions of interest (FIGS. 20-24). […] Further, kinetic analysis of the interaction was conducted using an analysis software specifically designed for BIACORE “BIAevaluation 2.1” (Pharmacia) which is capable of calculating the kinetics parameters (binding rate constant “kass” and dissociation rate constant “kdiss”) by curve cutting (Tables 4 and 5).
Test [3] deals with T1, human PTHrP (1-34). Put plainly: ELISA on plate-coated human PTHrP (1-34) (1 µg/ml); bound antibody detected with alkaline phosphatase-conjugated goat anti-human IgG; O.D. 405/620. This is another data set of the same source. (In general: An ELISA detects its analyte on a solid surface through an enzyme-linked reagent.)
Protocol: as §1
The target of test [4] is T1, human PTHrP (1-34). The description is as above. The source holds these as a separate data set.
Protocol: as §1
Test [5] deals with T1, human PTHrP (1-34). The description is as above. This is another data set of the same source.
Protocol: as §1
The target in test [6] is T1, human PTHrP (1-34). The description is as above. The source holds these as a separate data set.
Protocol: as §1
The target of test [7] is T1, human PTHrP (1-34). The test is described as above. The source holds these as a separate data set.
Protocol: as §1
For test [8], the target named is T1, human PTHrP (1-34). Described as above. This is another data set of the same source.
Protocol: as §1
In test [9] the target is T1, human PTHrP (1-34). The test is described as above. This is another data set of the same source.
Protocol: An ELISA plate for the determination of antigen binding ability was prepared as follows. Each of the wells of a 96-well plate for ELISA was coated with 100 μl of a solution comprising human PTHrP (1-34) (Peptide Research Institute) prepared in a coating buffer of a concentration of 1 μg/ml and then blocked with 200 μl of a dilution buffer. […] After incubating at room temperature and washing with PBS-Tween20, each well was added with 100 μl of a solution of alkaline phosphatase-conjugated goat anti-human IgG antibodies (TAGO). After incubating at room temperature and washing with PBS-Tween20, each well was added with 1 mg/ml of a substrate solution (“Sigma104”, p-nitrophenylphosphoric acid, SIGMA). The solution was measured for absorbance at −405 nm using Microplate Reader (Bio Rad).
The target of test [10] is T1, human PTHrP (1-34). As to the kind of experiment: solid phase RIA of hybridoma supernatants.
Test [11] has as its target T2, PTHrP (1-34+Cys). As to the kind of experiment: BIACORE (SPR), PTHrP (1-34+C) immobilised on CM5 through the C-terminal Cys, antibody as analyte. This is another data set of the same source.
Protocol: as §2, §3, §4

Where a chain is given by its changes, count along the chain named. Where two headings read alike, the source gives them in different places.

B1: humanized #23-57-137-1 antibody, H chain version a, L chain version s (antibody, V domains shown)
VH: QVQLVESGGGVVQPGRSLRLSCAASGFTFSSYGMSWVRQAPGKGLEWVATISSGGSYTYYPDSVKGRFTISRDNSKNTLYLQMNSLRAEDTAVYYCARQTTMTYFAYWGQGTLVTVSS
VL: QLVLTQSPSASASLGASVKLTCTLSSQHSTYTIEWYQQQPEKGPKYVMDLKQDGSHSTGDGIPDRFSGSSSGAERYLTISSLQSEDEADYICGVGDTIKEQFVYVFGGGTKLTVLG
For the molecule B1, the binding result with human PTHrP (1-34) [1] is recorded as “binds”.

B2: humanized #23-57-137-1 antibody, H chain version a, L chain version m (antibody, V domains shown)
VH: B1 VH
VL: B1 VL with K45R, V47L, I91Y
notes: Human Cγ1 and human Cλ C regions; Expressed in COS-7 for ELISA and in CHO for BIACORE; also called hMBCm
In the case of B2, in the test with PTHrP (1-34+Cys) [2], the affinity, expressed as Kd, was 0.358 nM; the dissociation rate constant (koff) is 0.000316 s⁻¹; the kon stood at 883000 M⁻¹ s⁻¹. Besides, the binding result with human PTHrP (1-34) [3] is on record as “binds”.

B3: hH / hLa (antibody, V domains shown)
VH: B1 VH
VL: QLVLTQSPSASASLGASVKLTCTLSSQHSTYTIEWHQQQPEKGPRYLMKLKQDGSHSTGDGIPDRFSGSSSGAERYLTISSLQSEDEADYYCGVGDTIKEQFVYVFGGGTKLTVL
notes: copies: 2 + 2
As for B3, the binding result with human PTHrP (1-34) [4] is listed as “no binding (tested: about 390 ng/ml)”.

B4: hH / hLc (antibody, V domains shown)
VH: B1 VH
VL: B3 VL with S84P
notes: copies: 2 + 2
In the case of B4, the binding result with human PTHrP (1-34) [4] is reported as “no binding (tested: about 460 ng/ml)”.

B5: humanized #23-57-137-1 antibody, H chain version a, L chain version q (antibody, V domains shown)
VH: B1 VH
VL: B1 VL with V47L
notes: Human Cγ1 and human Cλ C regions; Expressed in COS-7 for ELISA and in CHO for BIACORE; also called hMBCq
For the molecule B5, in the test with PTHrP (1-34+Cys) [2], binding was put at a Kd of 0.225 nM, the dissociation rate constant (koff) worked out at 0.000232 s⁻¹ and the on-rate (kon) turned out to be 1.03e+06 M⁻¹ s⁻¹. Also, the binding result with human PTHrP (1-34) [1] is recorded as “binds”.

B6: humanized #23-57-137-1 antibody, H chain version a, L chain version j (antibody, V domains shown)
VH: B1 VH
VL: B1 VL with V47L, I91Y
notes: Human Cγ1 and human Cλ C regions; Expressed in COS-7
B6: the binding result with human PTHrP (1-34) [5] is listed as “binds”.

B7: hH / hLn (antibody, V domains shown)
VH: B1 VH
VL: B3 VL with H36Y, L47V
notes: copies: 2 + 2
B7: the binding result with human PTHrP (1-34) [3] is “no binding (tested: about 1650 ng/ml)”.

B8: mouse FR1,2/human FR3,4 hybrid antibody (L chain m/hMBC1Laλ, humanized H chain version a) (antibody, V domains shown)
VH: B1 VH
VL: B1 VL with P8S, A12F, V18A, E41L, G43P, I91Y
notes: as for B6
As to B8, the binding result with human PTHrP (1-34) [6] is listed as “binds”.

B9: hH / hLf (antibody, V domains shown)
VH: B1 VH
VL: B3 VL with S84P, Y91I
notes: copies: 2 + 2
For B9, in the test with human PTHrP (1-34) [5], the binding result was “no binding (tested: about 380 ng/ml)”.

B10: mouse FR1,2/human FR3,4 hybrid antibody (L chain m/hMBC1Ldλ, humanized H chain version a) (antibody, V domains shown)
VH: B1 VH
VL: B1 VL with P8S, A12F, V18A, E41L, G43P
notes: as for B6
With B10, in the test with human PTHrP (1-34) [6], the binding result is listed as “binds”.

B11: antibody comprising the humanized H chain version "a" and the chimeric L chain (antibody, V domains shown)
VH: B1 VH
VL: QLVLTQSSSASFSLGASAKLTCTLSSQHSTYTIEWYQQQPLKPPKYVMDLKQDGSHSTGDGIPDRFSGSSSGADRYLSISNIQPEDEAMYICGVGDTIKEQFVYVFGGGTKVTVLG
notes: Human Cγ1 H chain C region
Consider B11, for which, in the test with human PTHrP (1-34) [7], the binding result is reported as “binds”.

B12: human FR1/mouse FR2,3,4 hybrid antibody (L chain hmmMBC1L(λ), humanized H chain version a) (antibody, V domains shown)
VH: B1 VH
VL: B11 VL with S8P, F12A, A18V
notes: as for B6
For the molecule B12, the binding result in the test with human PTHrP (1-34) [8] is reported as “binds”.

B13: humanized #23-57-137-1 antibody, H chain version a, L chain version o (antibody, V domains shown)
VH: B1 VH
VL: B1 VL with K45R, I91Y
notes: as for B6
B13: in the test with human PTHrP (1-34) [3], the binding result was “binds”.

B14: humanized #23-57-137-1 antibody, H chain version a, L chain version l (antibody, V domains shown)
VH: B1 VH
VL: B1 VL with I91Y
notes: as for B6
Turning to B14, the binding result with human PTHrP (1-34) [3] is on record as “binds”.

B15: humanized #23-57-137-1 antibody, H chain version a, L chain version t (antibody, V domains shown)
VH: B1 VH
VL: B1 VL with K45R
notes: as for B6
Regarding B15, the binding result with human PTHrP (1-34) [1] is given as “binds”.

B16: hH / hLd (antibody, V domains shown)
VH: B1 VH
VL: B3 VL with Y91I
notes: copies: 2 + 2
For the molecule B16, the binding result with human PTHrP (1-34) [4] was “no binding (tested: about 510 ng/ml)”.

B17: hH / hLb (antibody, V domains shown)
VH: B1 VH
VL: B3 VL with G43P, K49D
notes: copies: 2 + 2
For the molecule B17, the binding result with human PTHrP (1-34) [4] was “no binding (tested: about 370 ng/ml)”.

B18: human FR1,2/mouse FR3,4 hybrid antibody (L chain h/mMBC1L(λ), humanized H chain version a) (antibody, V domains shown)
VH: B1 VH
VL: B11 VL with S8P, F12A, A18V, Y36H, L41E, P43G, K45R, V47L, D49K
notes: Human Cγ1 and human Cλ C regions; Expressed in COS-7; also called h/mMBC1Ld(λ)
As for B18, in the test with human PTHrP (1-34) [6], the binding result is listed as “no binding (tested: about 340 ng/ml)”.

B19: humanized #23-57-137-1 antibody, H chain version a, L chain version r (antibody, V domains shown)
VH: B1 VH
VL: B1 VL with K45R, V47L
As for B19, the binding result in the test with human PTHrP (1-34) [1] is on record as “binds”.

B20: chimeric #23-57-137-1 antibody with human κ L chain C region (antibody, V domains shown)
VH: EVQLVESGGDLVKPGGSLKLSCAASGFTFSSYGMSWIRQTPDKRLEWVATISSGGSYTYYPDSVKGRFTISRDNAKNTLYLQMSSLKSEDTAMFYCARQTTMTYFAYWGQGTLVTVSA
VL: B11 VL
notes: Mouse V regions on a human Cγ1 H chain C region and a human Cκ L chain C region (from HEF-PM1k-gk); also called chimeric antibody (κ); MBC1HcDNA + MBC1L(κ)/neo
For the molecule B20, the binding result with human PTHrP (1-34) [9] is listed as “binds”.

B21: mouse FR1/human FR2/mouse FR3,4 hybrid antibody (L chain mhmMBC1L(λ), humanized H chain version a) (antibody, V domains shown)
VH: B1 VH
VL: B11 VL with Y36H, L41E, P43G, K45R, V47L, D49K
notes: as for B6
Turning to B21, the binding result in the test with human PTHrP (1-34) [8] is “no binding (tested: about 250 ng/ml)”.

B22: mouse monoclonal antibody #23-57-137-1 (antibody, V domains shown)
VH: B20 VH
VL: B11 VL
notes: Whole mouse antibody with a mouse λ L chain; The H chain cDNA was amplified with the MHC-G1 primer; also called MBC
In the case of B22, in the test with human PTHrP (1-34) [10], the binding result is given as “binds”. In addition, in the test with PTHrP (1-34+Cys) [11], binding was characterised by a dissociation constant (Kd) of 0.102 nM, the koff worked out at 7.38e-05 s⁻¹ and the on-rate constant (kon) was determined as 723000 M⁻¹ s⁻¹.

B23: chimeric #23-57-137-1 antibody with human λ L chain C region (antibody, V domains shown)
VH: B20 VH
VL: B11 VL
notes: It was expressed in COS-7 for ELISA and in CHO for BIACORE; also called chMBC; chH-chλ
In the test with PTHrP (1-34+Cys) [2], B23 returned a Kd of 0.134 nM, an off-rate constant (koff) of 0.000166 s⁻¹ and a kon of 1.24e+06 M⁻¹ s⁻¹. The binding result in the test with human PTHrP (1-34) [8] is recorded as “binds”.
